B1: Antibody E (antibody, V domains shown)
VH: QVQLQESGPRLVKPSETLSLTCTVSGGSITNNYWSWIRQPAGKGLEWIGRVYSSGLTNYKPSLKSRVTMSVDTSKNQFSLRLNSVTAADTAVYYCARERATVTTRYHYDGMDVWGQGTSVTVSS
VL: QSALTQPASVSGSPGQSITISCTGSSSDIGTYNYVSWYQQYPGKAPELMIYEVNNRPSGVSDRFSGSTSGNTASLTISGLQANDEADYYCSSYSSSSTWVFGGGTKLTVL
notes: also called mAb E
B2: Antibody F (antibody, V domains shown)
VH: QVQLQESGPGLVKPSETLSLTCTVSGGSISSYYWSWIRQPAGKGLEWIGRIFASGSTNYNPSLRSRVTMSRDTSKNQFSLKLSSVTAADTAVYYCAKERVGVQDYYHYSGMDVWGQGTTVTVSS
VL: QSALTQPASVSGSPGQSITISCTGTSSDVGLYNYVSWYQQQPGKAPKLMIYEVSKRPSGVSNRFSGSTSGNTASLTISGLQADDEADYSCSSYTSSSTWVFGGGTKLTVL
notes: also called mAb F
B3: Antibody D (antibody, V domains shown)
VH: QVQLQESGPGLVKPSETLSLTCTVSGGSISSYSWSWIRQPAGKGLEWIGRTSTSGRNNYNPSLKSRVTMSVDTSKNQFSLKLNSVTAADTAVYYCARDFTIAARRYYYYGMDVWGQGTTVTVSS
VL: B2 VL with V29I, Q41H, M49I, S54I, K55N, T68E, D83E, D87N, S89Y
notes: also called mAb D
B4: Antibody A (antibody, V domains shown)
VH: QVQLQESGPGLVKPSETLSLTCTVSGGSISSYIWSWIRQPAGKGLEWIGRIYASGNTNYNPSLKSRVTMSVDTSKNQFSLKLSSMTAADTAVYYCARDYRVAGTYYYYYGLDVWGQGTTVTVSS
VL: B2 VL with L31V, N33D, Q41H, K55N, T68K, A82T, D83E, S89Y, S96R
notes: Human antibody (XenoMouse); also called mAb A; anti-hCD30L A
B5: Antibody B (antibody, V domains shown)
VH: QVQLQESGPGLVKPSETLSLTCTVSGGSISSYYWTWIRQPAGKGLEWIGRIYTSGITNYNPSLKSRVTMSVDTSKNQFSLKLSSVTAADTAVYYCARERVVGASRYYYYGVDVWGQGTTVTVSS
VL: B2 VL with Q41H, G43D, Y51F, S54N, K55N, T68N, D83E, S89Y
notes: also called mAb B
B6: Antibody C (antibody, V domains shown)
VH: B5 VH
VL: QSALTQPASVSGSPGQSITISCTGTSSDIGLYDYVSWYQQHPDRAPKLIIFEVNNRPSGVSYRFSGSNSGNTASLTISGLQAEDEADYYCSSYTSSSTWVFGGGTKLTVL
notes: also called mAb C

Experimental findings from US20220112295A1 (Novo Nordisk, published 2022) are described below.

Positions count from the first letter of the chain named.

Usually % inhibition stands for the relative decrease from the control value, in per cent. By EC50 is commonly meant the concentration that produces a half-maximal response. Read a low EC50 as higher potency in that assay. As usually defined, the IC50 is the concentration that gives 50% inhibition.

The first assay concerns the target T1, FLAG-hCD30L-EC (N153Q) treated with PNGaseF (human).
T1 construct: also called FLAG-hCD30L-EC + PNGaseF
T1 chain: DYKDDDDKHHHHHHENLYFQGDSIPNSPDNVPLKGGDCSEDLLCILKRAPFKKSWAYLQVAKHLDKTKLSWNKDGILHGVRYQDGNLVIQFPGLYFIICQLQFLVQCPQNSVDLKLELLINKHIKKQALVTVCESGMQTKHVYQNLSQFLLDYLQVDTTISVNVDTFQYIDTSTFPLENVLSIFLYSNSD
Description: HX-MS, 6 uM hCD30L with 6.6 uM mAb.
With B1, the binding result is on record as “binds”.

Consider B2, for which the binding result is “binds”.

As for B3, the binding result is “binds”.

The target in a further assay is T2, native human CD30L expressed on Ramos cells (human, UniProt P32971 1-234).
T2 construct: It is used here for the native protein on human B cell lines; also called huCD30L; Native huCD30L
T2 sequence: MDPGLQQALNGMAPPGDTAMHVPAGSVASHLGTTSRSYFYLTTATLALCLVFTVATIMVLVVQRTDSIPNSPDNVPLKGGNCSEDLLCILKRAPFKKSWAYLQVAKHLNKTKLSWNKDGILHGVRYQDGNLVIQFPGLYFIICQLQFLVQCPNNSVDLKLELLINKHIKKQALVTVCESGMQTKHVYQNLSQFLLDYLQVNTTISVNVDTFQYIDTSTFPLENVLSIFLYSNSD
Description: FACS, antibody at 50 ug/mL, inhibition of huCD30.Fc-His binding to Ramos cells. Here is the method: The antibodies were also screened for ability to block binding of human CD30L to a soluble human CD30. c molecule. Briefly, human Ramos cells or activated cynomolgus monkey T cells were incubated with anti-CD30L IgGs at 50 μg/mL in blocking buffer for 30 minutes at 4° C. Soluble huCD30. Fc-His was then added at a final concentration of 2.5 ug/mL (30 μL/well) and incubated for 30 minutes at 4° C. Cells were washed ×2 with PBS and incubated with 5 μg/mL of a mouse anti-His monoclonal antibody (30μL/well in blocking buffer) and incubated for 30 minutes at 4° C. After washing ×2 with PBS, cells were incubated with anti-mouse IgG-PE (1:50 in PBS; BD Pharmingen, San Diego, Calif.) for a further 30 minutes at […]. Cells were then washed ×2 with PBS and prepared for FACs analysis.
Take B1: the “% inhibition” value amounted to 80%.

In the case of B4, the “% inhibition” value turned out to be 68%.

With B5, the “% inhibition” value was determined as 70%.

As for B3, the “% inhibition” value is 55%.

Take B6: the “% inhibition” value was determined as 88%.

The target in the next assay is T2, native human CD30L expressed on Ramos …. As to the kind of experiment: FACS, native human CD30L on Ramos cells. Here is the method:
The supernatants were purified and recombinant antibodies were expressed as IgG1 and IgG2 constructs. The antibodies were rescreened for binding to native human and cynomologous monkey CD30L. Briefly, human Burkitt's lymphoma Ramos cells (3×10⁵/well) were incubated in round-bottomed 96-well microtiter plates (Costar® 96 well plate (Corning; Acton, Mass.) with a titration (10 μg/mL to 3.2 ng/mL final concentration) of anti-CD30L IgG antibodies in blocking buffer (PBS containing 0.02% sodium azide, 2% normal goat serum and 1% normal rabbit serum). Human […] fusion protein was included as a positive control for binding. Cells were incubated for 30 minutes at 4° C. then washed ×2 with PBS and incubated for a further 30 minutes at 4° C. with 30 μL/well of anti-hu IgG-biotin (1:50 in blocking buffer; Jackson Immunoresearch, West Grove, Pa.). After washing ×2 with PBS, cells were incubated for 30 minutes at 4° C. with 30 μL/well (1:50 dilution in PBS) of Streptavidin-Phycoerythrin (PE; Molecular Probes, Eugene, Oreg.). Cells were washed 2× with PBS and prepared for FACs analysis.
A general note: Flow cytometry measures light scatter and fluorescence of single cells or particles in a stream.
B1 registered a 50% effective concentration (EC50) of 3.3 nM.

In the case of B4, the EC50 was determined as 1.7 nM.

Molecule B5 had an EC50 of 3.1 nM.

In the case of B2, it took 2.3 nM to reach a half-maximal effect (EC50).

The molecule B3 registered a concentration giving a half-maximal response (EC50) of 3.3 nM.

The molecule B6 had an EC50 of 1.7 nM.

In a further assay the target is T3, cyno CD30L LZ (cynomolgus monkey, UniProt A0A7N9CVX7 63-234).
T3 sequence: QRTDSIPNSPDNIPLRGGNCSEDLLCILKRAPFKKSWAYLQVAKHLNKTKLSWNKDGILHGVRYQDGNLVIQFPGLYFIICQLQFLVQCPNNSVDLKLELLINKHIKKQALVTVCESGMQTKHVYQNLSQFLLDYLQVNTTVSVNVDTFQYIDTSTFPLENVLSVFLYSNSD
Description: cell-based or functional assay.
Turning to B1, the “IC50, inhibition of IL-8 release (K299 single cell assay with cyno CD30L LZ)” value was found to be 5.4 nM.

For B4, the “IC50, inhibition of IL-8 release (K299 single cell assay with cyno CD30L LZ)” value came to 2 nM.

With B5, the “IC50, inhibition of IL-8 release (K299 single cell assay with cyno CD30L LZ)” value was 5.6 nM.

For the molecule B2, the “IC50, inhibition of IL-8 release (K299 single cell assay with cyno CD30L LZ)” value came out at 5.5 nM.

As for B3, the “IC50, inhibition of IL-8 release (K299 single cell assay with cyno CD30L LZ)” value was 5.4 nM.

For B6, the “IC50, inhibition of IL-8 release (K299 single cell assay with cyno CD30L LZ)” value was 3.9 nM.

A further assay deals with T2, native human CD30L expressed on Ramos …. As to the kind of experiment: cell-based or functional assay.
Regarding B1, the “IC50, inhibition of IL-8 release (K299/Ramos dual cell assay)” value worked out at 0.045 nM.

Turning to B4, the “IC50, inhibition of IL-8 release (K299/Ramos dual cell assay)” value came to 0.028 nM.

Consider B5, for which the “IC50, inhibition of IL-8 release (K299/Ramos dual cell assay)” value came out at 0.072 nM.

On to B2, for which the “IC50, inhibition of IL-8 release (K299/Ramos dual cell assay)” value was determined as 0.06 nM.

B3: the “IC50, inhibition of IL-8 release (K299/Ramos dual cell assay)” value stood at 0.062 nM.

B6: the “IC50, inhibition of IL-8 release (K299/Ramos dual cell assay)” value was 0.036 nM.

Another assay concerns the target T4, recombinant human CD30L isoleucine zipper (huCD30L LZ) (human, UniProt P32971 63-234).
T4 construct: also called huCD38L LZ; CD30L LZ Hu; not shown: N-terminal isoleucine zipper motif (leucine zipper with leucines replaced by isoleucines)
T4 sequence: T3 sequence with I13V, R16K, V142I, V165I
As to the kind of experiment: blocking of human CD30L LZ binding to K299 cells (CD30).
As to B1, the IC50 stood at 2.1 nM.

As for B4, the IC50 worked out at 1.5 nM.

B5: the IC50 turned out to be 2.5 nM.

As for B2, the concentration for half-maximal inhibition (IC50) was 2 nM.

Take B6: the IC50 came to 1.9 nM.
